The source of these data is article PMC6650080, “A novel Ca2+-binding protein that can rapidly transduce auxin responses during root growth” (PLoS Biology, 2019).

One experiment concerns the target T1, GST-ICR1 (Arabidopsis, UniProt Q8LE98 1-344).
T1 construct: ICR1, Arabidopsis; also called glutathione S-transferase (GST)-ICR1; source: E. coli Rosetta (DE3), purified (Glutathione sepharose)
T1 sequence (looked up): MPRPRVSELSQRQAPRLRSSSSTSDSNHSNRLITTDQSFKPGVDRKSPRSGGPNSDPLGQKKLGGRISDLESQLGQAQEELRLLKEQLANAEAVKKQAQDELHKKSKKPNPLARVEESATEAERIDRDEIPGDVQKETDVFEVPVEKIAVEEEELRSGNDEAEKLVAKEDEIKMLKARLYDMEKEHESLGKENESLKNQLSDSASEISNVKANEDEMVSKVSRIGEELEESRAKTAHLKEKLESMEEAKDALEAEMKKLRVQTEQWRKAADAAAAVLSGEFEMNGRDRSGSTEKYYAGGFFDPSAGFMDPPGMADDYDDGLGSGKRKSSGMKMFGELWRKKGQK
The experiment in a line: pull-down; GST-ICR1 (1.2 μg) or GST (0.4 μg) on Glutathione sepharose, His6-CMI1 0.5 μg; 20 mM Tris-HCl pH 7.5, 5 mM CaCl2, 0.1 mg/mL BSA, 200 mM NaCl, 1% Triton X-100, RT; wash with 1 M NaCl; blot with anti-poly-His. The note with it: both partners purified.

The next experiment deals with T2, His6-ICR1 (Arabidopsis, UniProt Q8LE98 1-344).
T2 construct: ICR1, Arabidopsis; also called His-ICR1; source: E. coli Rosetta (DE3), purified (Ni-NTA)
T2 sequence (looked up): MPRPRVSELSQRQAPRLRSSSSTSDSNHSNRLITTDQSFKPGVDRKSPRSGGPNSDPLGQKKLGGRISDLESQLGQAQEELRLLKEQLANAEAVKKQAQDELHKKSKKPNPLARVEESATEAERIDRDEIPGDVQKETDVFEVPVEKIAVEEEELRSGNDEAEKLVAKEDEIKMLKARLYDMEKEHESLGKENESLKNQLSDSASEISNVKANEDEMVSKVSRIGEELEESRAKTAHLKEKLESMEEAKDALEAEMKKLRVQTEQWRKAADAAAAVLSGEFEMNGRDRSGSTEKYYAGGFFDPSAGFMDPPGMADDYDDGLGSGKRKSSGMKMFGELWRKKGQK
Description: co-IP; purified His6-CMI1 and His6-ICR1, 1 μg each, 300 μL reaction buffer (20 mM Tris-HCl pH 7.5, 5 mM CaCl2, 0.1 mg/mL BSA, 200 mM NaCl, 1% Triton X-100), RT; anti-CMI1 antibodies and Protein A beads; blot with anti-poly-His. As to conditions: both partners purified.

B1: His6-CMI1 (natural protein, Arabidopsis, UniProt O81831 1-130, looked up)
chain: MASPKSPTRPTQQNPQPNFHDFLPTMAGNLGGEGLIGELCNGFELLMDREKGVITFESLRRNAAAVLGLGDLTDEDVRCMIKEGDFDCDGALNQMEFCVLMFRLSPDLMEASRCLVTEVIEEEFGFTRRH
notes: CMI1, Arabidopsis, At4g27280; also called His-CMI1; source: E. coli Rosetta (DE3), purified (Ni-NTA)
Take B1: the binding result with GST-ICR1 and with His6-ICR1 was “binds” in each case.
